Experimental findings from patent US20230406922A1 (SIMCERE ZAIMING PHARMACEUTICAL, published 2023) are described below.

Assay [1] addresses T1, monkey CD19, full length, on HEK293T cells (monkey, UniProt P15391 20-556 (human entry)).
T1 construct: The entry holds the signal peptide; also called HEK293T-monkey CD19
T1 chain: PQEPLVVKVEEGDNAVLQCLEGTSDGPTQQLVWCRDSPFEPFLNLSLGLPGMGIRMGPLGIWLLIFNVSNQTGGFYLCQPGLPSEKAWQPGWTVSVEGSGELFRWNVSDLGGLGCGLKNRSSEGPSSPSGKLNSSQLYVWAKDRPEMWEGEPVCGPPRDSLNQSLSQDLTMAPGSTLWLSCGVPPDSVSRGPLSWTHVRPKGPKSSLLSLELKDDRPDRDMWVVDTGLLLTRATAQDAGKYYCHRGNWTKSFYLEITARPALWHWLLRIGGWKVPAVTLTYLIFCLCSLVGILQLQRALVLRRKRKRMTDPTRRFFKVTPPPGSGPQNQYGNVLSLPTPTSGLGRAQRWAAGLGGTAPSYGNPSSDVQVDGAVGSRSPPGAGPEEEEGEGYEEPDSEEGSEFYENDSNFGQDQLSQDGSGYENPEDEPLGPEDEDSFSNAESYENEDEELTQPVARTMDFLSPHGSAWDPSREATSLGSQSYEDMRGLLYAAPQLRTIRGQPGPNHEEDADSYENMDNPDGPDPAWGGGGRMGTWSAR
As to the kind of experiment: FACS on HEK293T-monkey CD19 cells. On the procedure: (§1) For suspension cells Raji, the medium supernatant was discarded by direct centrifugation, and the cell pellet was washed twice with PBS. After cell counting of the cells obtained in the last step, the cell pellet was resuspended to 2×10⁶ cells/mL with a blocking solution [PBS+2% (w/w) BSA] and added into a 96-well FACS reaction plate at 50 μL/well. […] After the plate was centrifuged and washed 5 times with a PBS buffer, the results were assayed and analyzed by FACS (FACS Canto™, purchased from BD Biosciences). Data analysis was performed by software (CellQuest) to obtain the mean fluorescence intensity (MFI) of the cells. Then, analysis was performed by software (GraphPad Prism8), data were fitted, and EC₅₀ values were calculated.
(§2) HEK293T-monkey CD19 cells were subjected to the FACS assay and data analysis according to the method described in Example 4.2.

In assay [2] the target is T1, monkey CD19, full length, on HEK293T …. The assay can be described thus: FACS titration on HEK293T-monkey CD19 cells. As to the method:
as §1, §2

Assay [3] concerns the target T2, cynomolgus monkey CD19 on peripheral blood B cells (cynomolgus monkey (Macaca fascicularis), UniProt A0A2K5W8L9 20-557).
T2 construct: whole, on cells; also called cynomolgus monkey B cells
T2 sequence: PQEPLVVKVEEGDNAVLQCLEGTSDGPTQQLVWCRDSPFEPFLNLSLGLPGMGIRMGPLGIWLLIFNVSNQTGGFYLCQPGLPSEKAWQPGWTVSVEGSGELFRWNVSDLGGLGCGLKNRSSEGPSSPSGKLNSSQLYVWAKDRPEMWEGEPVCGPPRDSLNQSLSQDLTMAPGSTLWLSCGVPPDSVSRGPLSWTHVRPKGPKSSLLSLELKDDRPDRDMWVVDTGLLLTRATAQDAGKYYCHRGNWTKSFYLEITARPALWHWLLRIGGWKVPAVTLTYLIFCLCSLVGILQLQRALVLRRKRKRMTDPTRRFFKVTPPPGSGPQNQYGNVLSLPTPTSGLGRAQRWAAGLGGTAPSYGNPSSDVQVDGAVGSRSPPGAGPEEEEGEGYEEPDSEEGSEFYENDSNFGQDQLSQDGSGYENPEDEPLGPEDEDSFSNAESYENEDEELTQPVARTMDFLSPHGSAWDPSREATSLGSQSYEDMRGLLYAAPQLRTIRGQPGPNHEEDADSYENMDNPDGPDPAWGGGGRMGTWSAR
As to the kind of experiment: FACS on cynomolgus monkey PBMC, gated on CD20-positive B cells. As to the method: Monkey peripheral blood mononuclear cells were extracted from fresh cynomolgus monkey peripheral blood (purchased from Shanghai Medicilon Inc.) according to Ficoll-Paque Plus (purchased from GE Healthcare, Cat. No. 171440-02). […] The cells were incubated at room temperature for 1 h. […] The cells were incubated at room temperature for 30 min in the dark, washed 5 times, gently resuspended in PBS, and assayed and analyzed by FACS (FACS Canto™, purchased from BD Biosciences), in which CD20 was used as a marker for B cells.

A further assay addresses T3, murine CD19 protein (murine, UniProt P25918 19-287, limits assumed).
T3 construct: also called mouse CD19-his protein
T3 sequence (looked up): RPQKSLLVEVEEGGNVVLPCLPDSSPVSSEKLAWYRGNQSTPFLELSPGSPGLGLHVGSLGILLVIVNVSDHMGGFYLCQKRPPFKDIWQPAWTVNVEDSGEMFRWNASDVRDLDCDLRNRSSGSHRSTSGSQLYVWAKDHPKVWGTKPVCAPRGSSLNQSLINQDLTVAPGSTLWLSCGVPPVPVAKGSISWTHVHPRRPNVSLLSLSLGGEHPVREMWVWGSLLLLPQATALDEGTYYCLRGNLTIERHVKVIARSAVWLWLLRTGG
The assay can be described thus: ELISA, murine CD19 coated. On the technique in general: In an ELISA, binding on a coated surface is turned into a signal by an enzyme label.

The target of the next assay is monkey CD19-his protein (monkey). As to the kind of experiment: ELISA, monkey CD19 coated. On the procedure:
After incubation for 2 h at 37° C., the plate was washed 3 times with PBS. […] After incubation for 1 h at 37° C., the plate was washed 5 times with PBS. A TMB substrate was added at 50 μL/well. After incubation at room temperature for 10 min, a stop solution (1.0 N HCl) was added at 50 μL/well. The OD450 nm values were read on an ELISA microplate reader (Multimode Plate Reader, EnSight, purchased from Perkin Elmer). […] The negative control antibody mIgG1 was an antibody against hen egg lysozyme, anti-hel-mIgG1 (purchased from Biointron, Cat. No. B118301), and the data in the table were OD450 nm values.
IgG control was mIgG1, S003-NB151-89 was a clone that is selected from a library constructed by peripheral blood collected from Alpaca immunized by human CD19-His and can bind to a monkey CD19-His protein, and was used as a positive control, and the data in the table were OD450 nm values.

As usually defined, the EC50 is the midpoint of the concentration-response curve. The EC50 (read off the curve) is the concentration that produces a half-maximal response.

B1: 9G8-mIgG1 (antibody, V domains shown)
VH: EVQLVQSGAEVKKPGESLKISCKGSGYSFTSYWIGWVRQMPGKGLEWMGIIYPGDSDTRYSPSFQGQVTISADKSISTAYLQWSSLKASDTAMYYCARGVSGIYNLHGFDIWGQGTLVTVSS
VL: DIQMTQSPSSLSASVGDRVTITCRASQSISSYLNWYQQKPGKAPKLLIYAASSLQSGVPSRFSGSGSGTDFTLTISSLQPEDFATYYCQQGRFGSPFTFGQGTKVEIKR
notes: Control anti-CD19 antibody with monkey cross-activity
Turning to B1, in assay [1], the half-maximal effective concentration (EC50) came to 2.08 nM and the “maximum mean fluorescence intensity” value was determined as 19500 MFI. Moreover, the “EC50 (read off the curve)” value in assay [2] was around 0.4 nM. Further, in assay [3], the “proportion of positive cells to B cells (%) at 1 nM” value stood at 3%, the “proportion of positive cells to B cells (%) at 10 nM” value was 14% and the “proportion of positive cells to B cells (%) at 100 nM” value worked out at 71%.

B2: FMC63-mIgG1 (antibody, V domains shown)
VH: EVKLQESGPGLVAPSQSLSVTCTVSGVSLPDYGVSWIRQPPRKGLEWLGVIWGSETTYYNSALKSRLTIIKDNSKSQVFLKMNSLQTDDTAIYYCAKHYYYGGSYAMDYWGQGTSVTVSS
VL: DIQMTQTTSSLSASLGDRVTISCRASQDISKYLNWYQQKPDGTVKLLIYHTSRLHSGVPSRFSGSGSGTDYSLTISNLEQEDIATYFCQQGNTLPYTFGGGTKLEITR
notes: Parent murine antibody; also called murine antibody FMC63
As to B2, in the assay with murine CD19 protein, the “OD450 at 0.0001 nM” value was found to be 0.06 OD450, the “OD450 at 0.001 nM” value amounted to 0.06 OD450, the “OD450 at 0.01 nM” value was 0.05 OD450 and the “OD450 at 0.10 nM” value was 0.05 OD450. In the assay with murine CD19 protein, the “OD450 at 1.00 nM” value was 0.06 OD450, the “OD450 at 10.00 nM” value was determined as 0.07 OD450 and the “OD450 at 100.00 nM” value was determined as 0.1 OD450. In addition, in the assay with monkey CD19-his protein, the “OD450 at 0.0001 nM” value turned out to be 0.05 OD450, the “OD450 at 0.001 nM” value was 0.05 OD450, the “OD450 at 0.01 nM” value came to 0.05 OD450 and the “OD450 at 0.10 nM” value was found to be 0.05 OD450. Also, in the assay with monkey CD19-his protein, the “OD450 at 1.00 nM” value is 0.05 OD450, the “OD450 at 10.00 nM” value came out at 0.05 OD450 and the “OD450 at 100.00 nM” value was 0.09 OD450.
